Assay results as given in publication PMC10842378 (Cell reports, 2023).

How the values were obtained:
[1] = molecular target: FLAG-AP-DHX15 LML triple mutant L536A/M537A/L540A (human, UniProt O43143 1-795, L536A | M537A | L540A); test: proximity labelling
[2] = molecular target: FLAG-AP-DHX15 R222G (human, UniProt O43143 1-795, R222G); test: proximity labelling
Chain of FLAG-AP-DHX15 R222G (O43143 whole entry R222G): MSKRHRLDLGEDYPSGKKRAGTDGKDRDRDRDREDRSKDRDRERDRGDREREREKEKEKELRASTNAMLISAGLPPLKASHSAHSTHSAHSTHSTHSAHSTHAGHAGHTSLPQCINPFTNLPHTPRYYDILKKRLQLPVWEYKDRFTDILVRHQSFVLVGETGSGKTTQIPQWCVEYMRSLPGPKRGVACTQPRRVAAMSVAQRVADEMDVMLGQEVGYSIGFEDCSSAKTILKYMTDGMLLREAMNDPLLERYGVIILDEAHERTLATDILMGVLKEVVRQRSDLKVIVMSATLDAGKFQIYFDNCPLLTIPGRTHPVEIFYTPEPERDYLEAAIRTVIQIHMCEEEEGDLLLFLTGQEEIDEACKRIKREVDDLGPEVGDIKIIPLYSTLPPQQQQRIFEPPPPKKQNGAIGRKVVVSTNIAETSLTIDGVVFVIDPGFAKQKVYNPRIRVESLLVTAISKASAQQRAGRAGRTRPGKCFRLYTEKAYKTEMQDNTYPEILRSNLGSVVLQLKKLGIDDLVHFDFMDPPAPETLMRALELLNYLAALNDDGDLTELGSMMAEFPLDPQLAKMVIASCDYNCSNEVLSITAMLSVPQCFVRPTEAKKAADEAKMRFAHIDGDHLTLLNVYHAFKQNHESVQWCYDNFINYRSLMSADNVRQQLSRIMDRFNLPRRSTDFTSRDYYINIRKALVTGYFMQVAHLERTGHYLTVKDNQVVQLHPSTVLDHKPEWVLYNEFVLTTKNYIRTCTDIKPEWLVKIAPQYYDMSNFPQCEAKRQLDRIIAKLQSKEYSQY

Chain of FLAG-AP-DHX15 LML triple mutant L536A/M537A/L540A (O43143 whole entry L536A/M537A/L540A): as the sequence (O43143 whole entry R222G) above, with G222R, L536A, M537A, L540A counted along it

B1: SF3B1 (natural protein, human (endogenous in HEK293T.A2), UniProt O75533 1-1304, looked up)
chain: MAKIAKTHEDIEAQIREIQGKKAALDEAQGVGLDSTGYYDQEIYGGSDSRFAGYVTSIAATELEDDDDDYSSSTSLLGQKKPGYHAPVALLNDIPQSTEQYDPFAEHRPPKIADREDEYKKHRRTMIISPERLDPFADGGKTPDPKMNARTYMDVMREQHLTKEEREIRQQLAEKAKAGELKVVNGAAASQPPSKRKRRWDQTADQTPGATPKKLSSWDQAETPGHTPSLRWDETPGRAKGSETPGATPGSKIWDPTPSHTPAGAATPGRGDTPGHATPGHGGATSSARKNRWDETPKTERDTPGHGSGWAETPRTDRGGDSIGETPTPGASKRKSRWDETPASQMGGSTPVLTPGKTPIGTPAMNMATPTPGHIMSMTPEQLQAWRWEREIDERNRPLSDEELDAMFPEGYKVLPPPAGYVPIRTPARKLTATPTPLGGMTGFHMQTEDRTMKSVNDQPSGNLPFLKPDDIQYFDKLLVDVDESTLSPEEQKERKIMKLLLKIKNGTPPMRKAALRQITDKAREFGAGPLFNQILPLLMSPTLEDQERHLLVKVIDRILYKLDDLVRPYVHKILVVIEPLLIDEDYYARVEGREIISNLAKAAGLATMISTMRPDIDNMDEYVRNTTARAFAVVASALGIPSLLPFLKAVCKSKKSWQARHTGIKIVQQIAILMGCAILPHLRSLVEIIEHGLVDEQQKVRTISALAIAALAEAATPYGIESFDSVLKPLWKGIRQHRGKGLAAFLKAIGYLIPLMDAEYANYYTREVMLILIREFQSPDEEMKKIVLKVVKQCCGTDGVEANYIKTEILPPFFKHFWQHRMALDRRNYRQLVDTTVELANKVGAAEIISRIVDDLKDEAEQYRKMVMETIEKIMGNLGAADIDHKLEEQLIDGILYAFQEQTTEDSVMLNGFGTVVNALGKRVKPYLPQICGTVLWRLNNKSAKVRQQAADLISRTAVVMKTCQEEKLMGHLGVVLYEYLGEEYPEVLGSILGALKAIVNVIGMHKMTPPIKDLLPRLTPILKNRHEKVQENCIDLVGRIADRGAEYVSAREWMRICFELLELLKAHKKAIRRATVNTFGYIAKAIGPHDVLATLLNNLKVQERQNRVCTTVAIAIVAETCSPFTVLPALMNEYRVPELNVQNGVLKSLSFLFEYIGEMGKDYIYAVTPLLEDALMDRDLVHRQTASAVVQHMSLGVYGFGCEDSLNHLLNYVWPNVFETSPHVIQAVMGALEGLRVAIGPCRMLQYCLQGLFHPARKVRDVYWKIYNSIYIGSQDALIAHYPRIYNDDKNTYIRYELDYIL
- level in the streptavidin pull-down (percent) [1]: 36%
- level in the streptavidin pull-down (percent) [2]: 76%

B2: U2AF2 (natural protein, human (endogenous in HEK293T.A2), UniProt P26368 1-475, looked up)
chain: MSDFDEFERQLNENKQERDKENRHRKRSHSRSRSRDRKRRSRSRDRRNRDQRSASRDRRRRSKPLTRGAKEEHGGLIRSPRHEKKKKVRKYWDVPPPGFEHITPMQYKAMQAAGQIPATALLPTMTPDGLAVTPTPVPVVGSQMTRQARRLYVGNIPFGITEEAMMDFFNAQMRLGGLTQAPGNPVLAVQINQDKNFAFLEFRSVDETTQAMAFDGIIFQGQSLKIRRPHDYQPLPGMSENPSVYVPGVVSTVVPDSAHKLFIGGLPNYLNDDQVKELLTSFGPLKAFNLVKDSATGLSKGYAFCEYVDINVTDQAIAGLNGMQLGDKKLLVQRASVGAKNATLVSPPSTINQTPVTLQVPGLMSSQVQMGGHPTEVLCLMNMVLPEELLDDEEYEEIVEDVRDECSKYGLVKSIEIPRPVDGVEVPGCGKIFVEFTSVFDCQKAMQGLTGRKFANRVVVTKYCDPDSYHRRDFW
- level in the streptavidin pull-down (percent) [1]: 47%
- level in the streptavidin pull-down (percent) [2]: 80%
